The target in this assay is GST-Drak (435-532) (Drosophila melanogaster) (UniProt Q0KHT7). The experiment in a line: pull-down; GST-Drak on glutathione agarose; 100 µl of 0.2-10 µM Filamin fragment, 20 min on ice in 20 mM Tris-HCl pH 7.5, 100 mM NaCl, 1 mM DTT; washed with PBS; stain-free SDS-PAGE, Filamin to Drak band ratio.
Sequence of UniProt Q0KHT7 (Q0KHT7 435-532): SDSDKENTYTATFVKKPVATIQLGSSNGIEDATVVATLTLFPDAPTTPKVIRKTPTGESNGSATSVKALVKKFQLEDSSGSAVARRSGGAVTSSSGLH

For “Filamin-open (five-domain Drosophila Filamin fragment Cher15-19openMSR) (domain or fragment)”, the fold bound against the wild-type Filamin fragment is 10 fold.

These data come from paper PMC13225219.
